Data taken from article PMC5454391, “Improving 10-deacetylbaccatin III-10-β-O-acetyltransferase catalytic fitness for Taxol production” (Nature Communications, 2017).

B1: DBAT (recombinant DBAT of T. cuspidata) (Taxus cuspidata) (protein)
chain: MAGSTEFVVRSLERVMVAPSQPSPKAFLQLSTLDNLPGVRENIFNTLLVYNASDRVSVDPAKVIRQALSKVLVYYSPFAGRLRKKENGDLEVECTGEGALFVEAMADTDLSVLGDLDDYSPSLEQLLFCLPPDTDIEDIHPLVVQVTRFTCGGFVVGVSFCHGICDGLGAGQFLIAMGEMARGEIKPSSEPIWKRELLKPEDPLYRFQYYHFQLICPPSTFGKIVQGSLVITSETINCIKQCLREESKEFCSAFEVVSALAWIARTRALQIPHSENVKLIFAMDMRKLFNPPLSKGYYGNFVGTVCAMDNVKDLLSGSLLRVVRIIKKAKVSLNEHFTSTIVTPRSGSDESINYENIVGFGDRRRLGFDEVDFGWGHADNVSLVQHGLKDVSVVQSYFLFIRPPKNNPDGIKILSFMPPSIVKSFKFEMETMTNKYVTKP
B2: DBAT (recombinant DBAT of T. cuspidata) (Taxus cuspidata; F301V/G38R) (protein)
chain: MAGSTEFVVRSLERVMVAPSQPSPKAFLQLSTLDNLPRVRENIFNTLLVYNASDRVSVDPAKVIRQALSKVLVYYSPFAGRLRKKENGDLEVECTGEGALFVEAMADTDLSVLGDLDDYSPSLEQLLFCLPPDTDIEDIHPLVVQVTRFTCGGFVVGVSFCHGICDGLGAGQFLIAMGEMARGEIKPSSEPIWKRELLKPEDPLYRFQYYHFQLICPPSTFGKIVQGSLVITSETINCIKQCLREESKEFCSAFEVVSALAWIARTRALQIPHSENVKLIFAMDMRKLFNPPLSKGYYGNVVGTVCAMDNVKDLLSGSLLRVVRIIKKAKVSLNEHFTSTIVTPRSGSDESINYENIVGFGDRRRLGFDEVDFGWGHADNVSLVQHGLKDVSVVQSYFLFIRPPKNNPDGIKILSFMPPSIVKSFKFEMETMTNKYVTKP
B3: DBAT (recombinant DBAT of T. cuspidata) (Taxus cuspidata; F301V) (protein)
chain: MAGSTEFVVRSLERVMVAPSQPSPKAFLQLSTLDNLPGVRENIFNTLLVYNASDRVSVDPAKVIRQALSKVLVYYSPFAGRLRKKENGDLEVECTGEGALFVEAMADTDLSVLGDLDDYSPSLEQLLFCLPPDTDIEDIHPLVVQVTRFTCGGFVVGVSFCHGICDGLGAGQFLIAMGEMARGEIKPSSEPIWKRELLKPEDPLYRFQYYHFQLICPPSTFGKIVQGSLVITSETINCIKQCLREESKEFCSAFEVVSALAWIARTRALQIPHSENVKLIFAMDMRKLFNPPLSKGYYGNVVGTVCAMDNVKDLLSGSLLRVVRIIKKAKVSLNEHFTSTIVTPRSGSDESINYENIVGFGDRRRLGFDEVDFGWGHADNVSLVQHGLKDVSVVQSYFLFIRPPKNNPDGIKILSFMPPSIVKSFKFEMETMTNKYVTKP
B4: DBAT (recombinant DBAT of T. cuspidata) (Taxus cuspidata; G38R) (protein)
chain: MAGSTEFVVRSLERVMVAPSQPSPKAFLQLSTLDNLPRVRENIFNTLLVYNASDRVSVDPAKVIRQALSKVLVYYSPFAGRLRKKENGDLEVECTGEGALFVEAMADTDLSVLGDLDDYSPSLEQLLFCLPPDTDIEDIHPLVVQVTRFTCGGFVVGVSFCHGICDGLGAGQFLIAMGEMARGEIKPSSEPIWKRELLKPEDPLYRFQYYHFQLICPPSTFGKIVQGSLVITSETINCIKQCLREESKEFCSAFEVVSALAWIARTRALQIPHSENVKLIFAMDMRKLFNPPLSKGYYGNFVGTVCAMDNVKDLLSGSLLRVVRIIKKAKVSLNEHFTSTIVTPRSGSDESINYENIVGFGDRRRLGFDEVDFGWGHADNVSLVQHGLKDVSVVQSYFLFIRPPKNNPDGIKILSFMPPSIVKSFKFEMETMTNKYVTKP

Substrate: [H][C@]12[C@H](OC(=O)c3ccccc3)[C@]3(O)C[C@H](OC(=O)[C@H](O)[C@@H](NC(=O)c4ccccc4)c4ccccc4)C(C)=C([C@@H](O)C(=O)[C@]1(C)[C@@H](O)C[C@@]1([H])OC[C@@]21OC(C)=O)C3(C)C
Test: purified protein
Conditions: acetyl-CoA 2,000 μM (saturating), 50 mM sodium acetate pH 5.5, 37.5 °C, 180 min

In the case of B1, the Km is reported as 0.546 (±0.029) mM.
With B2 the Km was 0.424 (±0.133) mM.
B3 was tested, and the Km was 0.178 (±0.017) mM.
In the case of B4, the Km is reported as 0.368 (±0.061) mM.

Compared with B1, B2 is higher in Vmax: 0.204 µM/min for the first, 0.918 µM/min for the second.

Going from B3 to B4, the Vmax rises from 0.242 µM/min to 0.499 µM/min.

Compared with B1, B2 is 4.5-fold higher in kcat: 0.000334 s⁻¹ for the first, 0.0015 s⁻¹ for the second.

Going from B3 to B4, the kcat rises from 0.000396 s⁻¹ to 0.000815 s⁻¹ (2.1-fold).

First: B1
Second: B2
The kcat/Km of the first is 5.8-fold lower: 0.611 M⁻¹ s⁻¹ for the first, 3.54 M⁻¹ s⁻¹ for the second.

B3 and B4 are the same in kcat/Km: 2.22 M⁻¹ s⁻¹ for the first, 2.22 M⁻¹ s⁻¹ for the second.
